Assay results from patent publication US20200399369A1 (Sanofi, published 2020).

B1: AntiCD38_hhy_1195 (antibody, V domains shown)
VH: QVQLVESGGGVVQPGRSLRLSCAASGFTFSSYGMYWVRQAPGKGLEWVAVIWYDGSNKYYADSVKGRFTISRDNSKNTLYLQMNSLRAEDTAVYHCARDPGLRYFDGGMDVWGQGTTVTVSS
VL: DIQLTQSPSFLSASVGDRVTITCRASQGISSYLAWYQQKPGKAPKLLIFAASTLHSGVPSRFSGSGSGTEFTLTISSLQPEDFATYYCQQLNSFPYTFGQGTKLEIK
B2: AntiCD38_hhy_992 (antibody, V domains shown)
VH: QVQLVQSGAEVKKPGASVKVSCKVSGYTLTEFSIHWVRQAPGQGLEWMGGFDPEDGETIYAQKFQGRVIMTEDTSTDTAYMEMNSLRSEDTAIYYCTTGRFFDWFWGQGTLVTVSS
VL: EIILTQSPAILSLSPGERATLSCRASQSVISRFLSWYQVKPGLAPRLLIYGASTRATGIPVRFSGSGSGTDFSLTISSLQPEDCAVYYCQQDSNLPITFGQGTRLEIK

What was measured:
[1] = target: T1, human CD38 (human, UniProt P28907 43-300, limits assumed); assay: SPR
T1 construct: also called hCD38; huCD38

[2] = target: T2, cynomolgus monkey CD38 (cynomolgus monkey, UniProt Q5VAN0 44-301, limits assumed); assay: SPR
T2 construct: also called Cyno CD38; cynoCD38

[3] = target: T1, human CD38; assay: FACS
[4] = target: T2, cynomolgus monkey CD38; assay: FACS
[5] = target: T1, human CD38; assay: ELISA
[6] = target: T2, cynomolgus monkey CD38; assay: ELISA

Row | Kd [1] [nM] | Kd [2] [nM] | EC50 [3] [nM] | EC50 [4] [nM] | EC50 [5] [nM] | EC50 [6] [nM] | Binder
1 | 40 | 26 | 38 | 15 | 1.4 | 0.86 | B1
2 | 0.365 | 6.12 | 100 | 288 | 0.09 | 0.08 | B2
